Test results reported in article PMC7939394, “A highly potent CD73 biparatopic antibody blocks organization of the enzyme active site through dual mechanisms” (The Journal of Biological Chemistry, 2020).
Each block holds one binder with its values, some of them ahead of it.

Legend:
[1] = target: T1, extracellular domain of human CD73 (residues 27-549) deglycosylated with PNGase F (human, UniProt P21589, deglycosylated with PNGase F; a glycan left at Asn-311); experiment: crystal structure; TB19 Fab::CD73 complex; crystals in 0.1 M sodium potassium phosphate pH 6.2, 35% 5-methyl-2,4-pentanediol, 2.5% pentaerythritol ethoxylate, 4°C; conditions: both partners purified
T1 construct: CD73 (ecto-5'-nucleotidase, NT5E), human, extracellular domain, residues 27-549; Construct used for SEC-MALS and for the two crystal structures; also called ecto-5'-nucleotidase; NT5E; source: ExpiHEK293, purified (nickel column, PNGase F, size-exclusion chromatography)

soluble CD73 dimer = target: T2, soluble CD73 dimer (human, UniProt P21589); experiment: BLI; pre-mix epitope binning: monovalent antibodies on protein A biosensors, 100 nM CD73 alone or with a 4-fold molar excess of Fab; PBS pH 7.4, 0.1% BSA, 0.01% Tween 20, 30°C; conditions: both partners purified
T2 construct: CD73 (ecto-5'-nucleotidase, NT5E), human, soluble form; Also used here as the target of the functional rows, where CD73 stood whole on COR-L23 cells; also called soluble human CD73

[2] = target: T1, extracellular domain of human CD73 …; experiment: crystal structure; TB38 Fab::CD73 complex; crystals in 1.6 M sodium phosphate monobasic, 0.4 M potassium phosphate dibasic, 0.1 M sodium phosphate citrate pH 5.3, 4°C; conditions: both partners purified
TB19/AS30 = experiment: SPR; Biacore T200, 25°C, HBS-EP+ pH 7.4; antibody captured at low density (5-30 RU) on Protein A chips, CD73 at 3, 12 or 32 nM in the flow (5 min association, 30 min dissociation); 1:1 Langmuir binding model
TB38/AS30 = experiment: as above
TB19/TB38 = experiment: as above
[3] = target: the molecule itself; experiment: crystal structure; TB19 Fab::CD73 complex; crystals in 0.1 M sodium potassium phosphate pH 6.2, 35% 5-methyl-2,4-pentanediol, 2.5% pentaerythritol ethoxylate, 4°C

B1: TB19 Fab (Fab, V domains shown)
VH: QEQLQESGPGLVKPSETLSLTCTVSGGSIRNNYYNWIRQPAGKGLEWIGRIYISGTTNSNPSLKSRVTMSIDTSKNQFSLKLSSVTAADTAIYYCAREHYVSGTSLDNWGQGTLVTVSS
VL: EIVMTQSPTTLSLSPGERATLSCRASQSVNTNYFSWYQQKPGLTPRLLIYGTSTRATGIPARFSGSGSGTDFTLTISSLQPEDFGIYYCQQDYNLPYTFGQGTYLEIK
notes: deposited with the structure TB19::CD73, PDB 6VC9 (only the Fv could be built); The methods speak of a 'TB19.3 Fv model' as search model; also called TB19 Fv
binding result [1]: binds
binding result (soluble CD73 dimer): binds

B4: extracellular domain of human CD73 (residues 27-549) deglycosylated with PNGase F (enzyme, UniProt P21589 27-549, looked up)
chain: WELTILHTNDVHSRLEQTSEDSSKCVNASRCMGGVARLFTKVQQIRRAEPNVLLLDAGDQYQGTIWFTVYKGAEVAHFMNALRYDAMALGNHEFDNGVEGLIEPLLKEAKFPILSANIKAKGPLASQISGLYLPYKVLPVGDEVVGIVGYTSKETPFLSNPGTNLVFEDEITALQPEVDKLKTLNVNKIIALGHSGFEMDKLIAQKVRGVDVVVGGHSNTFLYTGNPPSKEVPAGKYPFIVTSDDGRKVPVVQAYAFGKYLGYLKIEFDERGNVISSHGNPILLNSSIPEDPSIKADINKWRIKLDNYSTQELGKTIVYLDGSSQSCRFRECNMGNLICDAMINNNLRHTDEMFWNHVSMCILNGGGIRSPIDERNNGTITWENLAAVLPFGGTFDLVQLKGSTLKKAFEHSVHRYGQSTGEFLQVGGIHVVYDLSRKPGDRVVKLDVLCTKCRVPSYDPLKMDEVYKVILPNFLANGGDGFQMIKDELLRHDSGDQDINVVSTYISKMKVIYPAVEGRIKFS
modifications: deglycosylated with PNGase F; a glycan left at Asn-311
notes: CD73 (ecto-5'-nucleotidase, NT5E), human, extracellular domain, residues 27-549; Construct used for SEC-MALS and for the two crystal structures; also called ecto-5'-nucleotidase; NT5E; source: ExpiHEK293, purified (nickel column, PNGase F, size-exclusion chromatography)
stoichiometry N [3]: 2

The remaining lines, values ahead:

binding result [2]: binds
B2: TB38 Fab (Fab, V domains shown)
VH: QVQLVESGGGVVQPGRSLRLSCAASGFTFSSYGMHWVRQAPGKGLEWVAVFWYDGSNKYYADSVKGRFTISRDNSKNTLYLQMNSLSAEDTAVYYCARAPNWDDAFDIWGQGTMVTVSS
VL: QTVVTQEPSFSVSPGGTVTLTCGLSSGSVSTSYYPNWYQQTPGQAPRTLIYSTNTRSSGVPDRFSGSILGNKAALTITGAQADDESDYYCVLFMGSGIWVFGGGTKLTVL
notes: deposited with the structure TB38::CD73, PDB 6VCA (full Fab built on the open CD73 dimer); also called TB38 Fv

Kd (TB19/AS30): 4.18 nM
koff (TB19/AS30): 0.00069 s⁻¹
kon (TB19/AS30): 165000 M⁻¹ s⁻¹
Kd (TB38/AS30): 0.814 nM
koff (TB38/AS30): 0.000187 s⁻¹
kon (TB38/AS30): 237000 M⁻¹ s⁻¹
Kd (TB19/TB38): 0.555 nM
koff (TB19/TB38): 0.000102 s⁻¹
kon (TB19/TB38): 184000 M⁻¹ s⁻¹
B3: soluble CD73 dimer (enzyme)
chain: WELTILHTNDVHSRLEQTSEDSSKCVNASRCMGGVARLFTKVQQIRRAEPNVLLLDAGDQYQGTIWFTVYKGAEVAHFMNALRYDAMALGNHEFDNGVEGLIEPLLKEAKFPILSANIKAKGPLASQISGLYLPYKVLPVGDEVVGIVGYTSKETPFLSNPGTNLVFEDEITALQPEVDKLKTLNVNKIIALGHSGFEMDKLIAQKVRGVDVVVGGHSNTFLYTGNPPSKEVPAGKYPFIVTSDDGRKVPVVQAYAFGKYLGYLKIEFDERGNVISSHGNPILLNSSIPEDPSIKADINKWRIKLDNYSTQELGKTIVYLDGSSQSCRFRECNMGNLICDAMINNNLRHTDEMFWNHVSMCILNGGGIRSPIDERNNGTITWENLAAVLPFGGTFDLVQLKGSTLKKAFEHSVHRYGQSTGEFLQVGGIHVVYDLSRKPGDRVVKLDVLCTKCRVPSYDPLKMDEVYKVILPNFLANGGDGFQMIKDELLRHDSGDQDINVVSTYISKMKVIYPAVEGRIKFS
